# Biological target: T1, Sialylated clusterin (CLU) (UniProt P10909 23-449, sialylated)
# T1 construct: Clusterin (CLU), soluble sialylated protein
# Experiment: BLI + MST; quantitative binding assay; which of the two methods gave the value, and who was immobilised or labelled, is not told
# Conditions: both partners purified
# T1 sequence (P10909 23-449): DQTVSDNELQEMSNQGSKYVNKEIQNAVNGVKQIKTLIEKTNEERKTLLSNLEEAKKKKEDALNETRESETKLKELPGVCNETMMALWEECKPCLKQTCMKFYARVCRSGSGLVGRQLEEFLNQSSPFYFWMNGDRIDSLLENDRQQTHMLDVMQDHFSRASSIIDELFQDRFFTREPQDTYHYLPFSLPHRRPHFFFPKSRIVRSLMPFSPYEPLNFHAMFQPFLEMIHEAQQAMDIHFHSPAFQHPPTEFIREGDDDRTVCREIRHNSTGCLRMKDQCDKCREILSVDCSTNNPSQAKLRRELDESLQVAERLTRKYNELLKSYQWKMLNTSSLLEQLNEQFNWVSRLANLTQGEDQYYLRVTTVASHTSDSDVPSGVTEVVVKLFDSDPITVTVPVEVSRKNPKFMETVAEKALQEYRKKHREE
binder,measurement,value
sialic-acid binding immunoglobulin-like lectin 3 receptor (Siglec-3 / CD33) (receptor) DPNFWLQVQESVTVQEGLCVLVPCTFFHPIPYYDKNSPVHGYWFREGAIISRDSPVATNKLDQEVQEETQGRFRLLGDPSRNNCSLSIVDARRRDNGSYFFRMERGSTKYSYKSPQLSVHVTDLTHRPKILIPGTLEPGHSKNLTCSVSWACEQGTPPIFSWLSAAPTSLGPRTTHSSVLIITPRPQDHGTNLTCQVKFAGAGVTTERTIQLNVTYVPQNPTTGIFPGDGSGKQETRAGVVH,Kd,0.0289 ± 0.0103 µM

# — PMC12726990, “Sialylated Clusterin Binds CD33 to Regulate Microglial Functions in Alzheimer's Disease” (Alzheimer's & Dementia, 2025)
